Measured values taken from the supplement of paper PMC9112550, “Optimization of the antimicrobial peptide Bac7 by deep mutational scanning” (BMC Biology, 2022).

Tested on: Escherichia coli TOP10
Experiment: shrunken log2 fold change of peptide-encoding DNA abundance (4.5 h post-induction vs induction); higher = less antimicrobial activity (less host growth inhibition)
Details: time post-induction: 4.5 h; library: site-saturation at positions 5, 18, 19, 20
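Note: peptides expressed intracellularly from a pBAD plasmid library in pooled LB shake-flask culture, induced with 0.3% L-arabinose, DNA abundance read by NGS, three biological replicates, DESeq2 with apeglm shrinkage.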

Sequence | shrunken log2 fold change
RRIRDRPPRLPRPRPRPGYAPRP | 0.137
RRIRWRPPRLPRPRPRPEIPPRP | -0.142
RRIRHRPPRLPRPRPRPRIAPRP | 0.0721
RRIRRRPPRLPRPRPRPDIQPRP | 0.0298
RRIRRRPPRLPRPRPRPPRFPRP | 1.17
RRIRGRPPRLPRPRPRPDRTPRP | -0.0561
RRIRYRPPRLPRPRPRPQDCPRP | -0.363
RRIRSRPPRLPRPRPRPTMIPRP | -0.163
RRIRKRPPRLPRPRPRPYVPPRP | -0.423
RRIRDRPPRLPRPRPRPHRQPRP | -0.0279
RRIRCRPPRLPRPRPRPIGVPRP | 0.0129
RRIRGRPPRLPRPRPRPFYVPRP | 0.0462
RRIRARPPRLPRPRPRPQGHPRP | 0.273
RRIRYRPPRLPRPRPRPISNPRP | -0.191
RRIRPRPPRLPRPRPRPMHPPRP | 0.324
RRIRVRPPRLPRPRPRPPKCPRP | -0.173
RRIRCRPPRLPRPRPRPHTGPRP | -0.341
RRIRRRPPRLPRPRPRPFQMPRP | -0.138
RRIRARPPRLPRPRPRPHTNPRP | -0.227
RRIRKRPPRLPRPRPRPHAFPRP | 0.106
RRIRHRPPRLPRPRPRPPAEPRP | 0.0536
RRIRTRPPRLPRPRPRPVDGPRP | 0.0538
RRIRPRPPRLPRPRPRPMQYPRP | -0.0088
RRIRYRPPRLPRPRPRPTHAPRP | -0.0504
RRIRSRPPRLPRPRPRPDMQPRP | -0.00211

Sequence | shrunken log2 fold change
RRIRMRPPRLPRPRPRPYNLPRP | 0.227
RRIRGRPPRLPRPRPRPMIGPRP | 0.263
RRIRLRPPRLPRPRPRPETKPRP | 0.00291
RRIRDRPPRLPRPRPRPWLLPRP | 0.0241
RRIRWRPPRLPRPRPRPFGMPRP | -0.283
RRIRQRPPRLPRPRPRPNQWPRP | 0.0886
RRIRHRPPRLPRPRPRPHNEPRP | -0.458
RRIRVRPPRLPRPRPRPAQDPRP | 0.0947
RRIRFRPPRLPRPRPRPSTMPRP | -0.391
RRIRPRPPRLPRPRPRPETHPRP | 0.221
RRIRQRPPRLPRPRPRPHVQPRP | -0.46
RRIRCRPPRLPRPRPRPAFVPRP | 0.179
RRIRARPPRLPRPRPRPIVMPRP | -0.0831
RRIRDRPPRLPRPRPRPWFNPRP | -0.161
RRIRLRPPRLPRPRPRPEGKPRP | -0.00133
RRIRKRPPRLPRPRPRPKGEPRP | 0.201
RRIRCRPPRLPRPRPRPIEEPRP | 0.008
RRIRVRPPRLPRPRPRPMLWPRP | 0.0613
RRIRYRPPRLPRPRPRPIWTPRP | 0.066
RRIRRRPPRLPRPRPRPRCHPRP | 0.127
RRIRFRPPRLPRPRPRPTITPRP | -0.513
RRIRSRPPRLPRPRPRPNVDPRP | 0.0085
RRIRHRPPRLPRPRPRPEYHPRP | -0.317
RRIRLRPPRLPRPRPRPMYRPRP | 0.0136
RRIRARPPRLPRPRPRPHAFPRP | 0.231

Sequence | shrunken log2 fold change
RRIRMRPPRLPRPRPRPKPEPRP | 0.0854
RRIRFRPPRLPRPRPRPNAKPRP | -0.00228
RRIRDRPPRLPRPRPRPIINPRP | 0.423
RRIRGRPPRLPRPRPRPPDLPRP | 0.791
RRIRMRPPRLPRPRPRPNAVPRP | 0.0414
RRIRNRPPRLPRPRPRPHHHPRP | -0.617
RRIRWRPPRLPRPRPRPQGTPRP | 0.104
RRIRPRPPRLPRPRPRPTWAPRP | 0.381
RRIRVRPPRLPRPRPRPRWIPRP | -0.0863
RRIRTRPPRLPRPRPRPSRSPRP | -0.0434
RRIRMRPPRLPRPRPRPNPTPRP | 0.849
RRIRPRPPRLPRPRPRPYVIPRP | -0.401
RRIRRRPPRLPRPRPRPRKKPRP | 0.207
RRIRMRPPRLPRPRPRPTQTPRP | 2.06
RRIRPRPPRLPRPRPRPHMAPRP | -0.276
RRIRLRPPRLPRPRPRPWHYPRP | -0.164
RRIRFRPPRLPRPRPRPLDGPRP | -0.143
RRIRFRPPRLPRPRPRPDCCPRP | -0.0954
RRIRGRPPRLPRPRPRPLGSPRP | 0.338
RRIRDRPPRLPRPRPRPKIEPRP | -0.305
RRIRIRPPRLPRPRPRPKIKPRP | -0.696
RRIRERPPRLPRPRPRPEMSPRP | 0.0528
RRIRNRPPRLPRPRPRPWLSPRP | 0.0232
RRIRWRPPRLPRPRPRPSGLPRP | 0.155
RRIRPRPPRLPRPRPRPPESPRP | 0.841

Sequence | shrunken log2 fold change
RRIRHRPPRLPRPRPRPNTAPRP | -0.246
RRIRARPPRLPRPRPRPCLRPRP | 0.0978
RRIRVRPPRLPRPRPRPTKIPRP | -0.321
RRIRYRPPRLPRPRPRPCSGPRP | -0.0198
RRIRCRPPRLPRPRPRPTGAPRP | 0.419
RRIRDRPPRLPRPRPRPYPDPRP | -0.27
RRIRMRPPRLPRPRPRPKSLPRP | 0.171
RRIRGRPPRLPRPRPRPVIGPRP | 0.388
RRIRARPPRLPRPRPRPDSWPRP | 0.508
RRIRKRPPRLPRPRPRPNIPPRP | -0.237
RRIRGRPPRLPRPRPRPDAAPRP | 3.73
RRIRQRPPRLPRPRPRPPMYPRP | -0.269
RRIRNRPPRLPRPRPRPSECPRP | -0.272
RRIRKRPPRLPRPRPRPGGYPRP | 0.61
RRIRVRPPRLPRPRPRPWNGPRP | -0.277
RRIRIRPPRLPRPRPRPMRQPRP | 0.3
RRIRKRPPRLPRPRPRPLRCPRP | 0.35
RRIRNRPPRLPRPRPRPGVFPRP | 0.117
RRIRKRPPRLPRPRPRPAWPPRP | 0.675
RRIRFRPPRLPRPRPRPLETPRP | 0.105
RRIRTRPPRLPRPRPRPFFCPRP | -0.0401
RRIRPRPPRLPRPRPRPIFVPRP | -0.197
RRIRNRPPRLPRPRPRPMEGPRP | -0.00992
RRIRPRPPRLPRPRPRPLCCPRP | -0.105
RRIRKRPPRLPRPRPRPQDFPRP | 0.00806

Sequence | shrunken log2 fold change
RRIRRRPPRLPRPRPRPCAWPRP | 0.0864
RRIRVRPPRLPRPRPRPIACPRP | 0.0889
RRIRLRPPRLPRPRPRPEQGPRP | 1.07
RRIRQRPPRLPRPRPRPFAPPRP | 0.0897
RRIRWRPPRLPRPRPRPTKGPRP | 0.469
RRIRIRPPRLPRPRPRPPVVPRP | 0.0726
RRIRGRPPRLPRPRPRPGTVPRP | 0.206
RRIRSRPPRLPRPRPRPSEKPRP | 0.029
RRIRFRPPRLPRPRPRPPEEPRP | 0.153
RRIRVRPPRLPRPRPRPHWCPRP | -0.144
RRIRGRPPRLPRPRPRPVECPRP | 0.289
RRIRLRPPRLPRPRPRPCIFPRP | -0.463
RRIRQRPPRLPRPRPRPGNYPRP | -0.222
RRIRERPPRLPRPRPRPGIKPRP | -0.587
RRIRCRPPRLPRPRPRPNELPRP | -0.171
RRIRTRPPRLPRPRPRPAHEPRP | 0.197
RRIRFRPPRLPRPRPRPTNNPRP | -0.644
RRIRMRPPRLPRPRPRPGPCPRP | 0.915
RRIRIRPPRLPRPRPRPKMFPRP | 0.0072
RRIRERPPRLPRPRPRPHVMPRP | -0.957
RRIRARPPRLPRPRPRPSFFPRP | 0.238
RRIRHRPPRLPRPRPRPPFAPRP | 0.564
RRIRCRPPRLPRPRPRPWKDPRP | 0.00196
RRIRCRPPRLPRPRPRPVFYPRP | -0.379
RRIRNRPPRLPRPRPRPGPVPRP | 0.127
